Reference: patent US20030124117A1
Where two headings read alike, the source gives them in different places.

Assays:
[1] = target: soluble tissue factor composed of the extracellular domain residues 1-219 of hTF (human) (UniProt P13726); assay: TF binding assay (ELISA on coated human soluble TF), ratio to chimeric F(ab) standard
[2] = target: truncated transmembrane tissue factor comprising residues 1-243, relipidated (human) (UniProt P13726); assay: cell-based or functional assay
[3] = target: truncated transmembrane tissue factor comprising residues 1-243, relipidated (human) (UniProt P13726); assay: cell-based or functional assay; remark: listed apart in the source
[4] = target: tissue factor on human J82 cells (human) (UniProt P13726); assay: cell-based or functional assay
[5] = target: relipidated human tissue factor (Innovin) (human) (UniProt P13726); assay: cell-based or functional assay
Sequence of relipidated human tissue factor (Innovin) (human) (P13726 33-295 limits assumed): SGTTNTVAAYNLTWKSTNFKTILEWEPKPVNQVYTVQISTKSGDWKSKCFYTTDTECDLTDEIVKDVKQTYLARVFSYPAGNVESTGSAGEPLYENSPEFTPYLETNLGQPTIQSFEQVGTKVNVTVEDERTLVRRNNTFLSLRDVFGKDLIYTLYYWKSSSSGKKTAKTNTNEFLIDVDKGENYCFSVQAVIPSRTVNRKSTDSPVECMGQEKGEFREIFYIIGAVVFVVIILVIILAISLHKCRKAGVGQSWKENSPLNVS

Sequence of soluble tissue factor composed of the extracellular domain residues 1-219 of hTF (human) (P13726 33-251): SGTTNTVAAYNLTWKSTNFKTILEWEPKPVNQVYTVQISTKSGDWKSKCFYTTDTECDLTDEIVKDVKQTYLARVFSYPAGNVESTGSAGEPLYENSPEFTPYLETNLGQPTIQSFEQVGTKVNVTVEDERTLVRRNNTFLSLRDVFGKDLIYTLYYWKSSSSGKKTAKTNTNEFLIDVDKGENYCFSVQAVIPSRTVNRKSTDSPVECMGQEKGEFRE
Sequence of truncated transmembrane tissue factor comprising residues 1-243, relipidated (human) (P13726 33-275): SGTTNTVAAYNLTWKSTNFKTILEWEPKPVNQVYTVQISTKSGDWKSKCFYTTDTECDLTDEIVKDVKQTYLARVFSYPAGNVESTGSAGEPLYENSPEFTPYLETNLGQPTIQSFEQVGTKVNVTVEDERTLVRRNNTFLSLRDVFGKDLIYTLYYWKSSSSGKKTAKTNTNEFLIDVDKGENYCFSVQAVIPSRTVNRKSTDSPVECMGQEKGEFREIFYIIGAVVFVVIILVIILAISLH
Sequence of tissue factor on human J82 cells (human) (P13726 33-295): as the sequence (P13726 33-295 limits assumed) above

With “chimeric D3 F(ab) with CDR-H3 Thr96-Ala97-Ala98 changed to TF8 Asn96-Ser97-Tyr98 (Fab)” the fold reduction in binding against chimeric D3 F(ab) [1] was 20.3 fold.

Work on HTF1 antibody yielded a concentration inhibiting the rate of FX activation in human plasma by 50% [2] of 150 µg/mL.

With “chimeric D3 F(ab) with CDR-H2 Asp H65 changed to Gly (Fab)” the fold reduction in binding against chimeric D3 F(ab) [1] was 14.2 fold.

B1: murine anti-TF antibody 5G6 (antibody, V domains shown)
VH: EVLLQQSGPELVKPGASVKIPCKASGYTFTEYNMDWVKQSHGKSLEWIGDINPNNGNTIYNQKFKGKATLTVDKSSTTAYLELRSLTSEDTAVYFCARDHDYYFDFWGQGTTLTVSS
VL: DIQMTQTPASQSASLGESVTITCLASQTIDTWLAWYQQKPGKSPQLLIYAATSLADGVPSRFSGSGSGTKFSFKISSLQAEDFVSYYCQQPYSSPYTFGGGTKLELKR
modifications: murine constant regions
B1 gave a concentration inhibiting the rate of FX activation in human plasma by 50% [3] of 15.5 µg/mL, an IC50 of FPA generation, human ex-vivo blood flow system with J82 cells [4] of 50 µg/mL and an antibody concentration prolonging the clotting time (PT) by 1.5-fold [5] of 27 µg/mL.
